# From PMC9157036
# Target: ferritin-based 24-meric nanoparticle with N-terminal protein A tag
# Test: SPR
# Conditions: Fc fusion
substance,measurement,value
RBD (residues 331aa-524aa) of the SARS-CoV-2 Omicron spike protein with an Fc tag in the C-terminus (from UniProt P0DTC2 331-524),Kd,187 nM
